Measurements: publication PMC9443353

Legend:
[1] = target: T1, DENV4 NS1 (Dengue virus serotype 4) (UniProt Q2YHF0); assay: filter binding with qPCR; settings: ELONA: borate buffer (60 mM in selection), 37 °C, 30 min, pH not stated; specificity: selection buffer, filtration, qPCR; FET: human serum as gate electrolyte …
T1 sequence: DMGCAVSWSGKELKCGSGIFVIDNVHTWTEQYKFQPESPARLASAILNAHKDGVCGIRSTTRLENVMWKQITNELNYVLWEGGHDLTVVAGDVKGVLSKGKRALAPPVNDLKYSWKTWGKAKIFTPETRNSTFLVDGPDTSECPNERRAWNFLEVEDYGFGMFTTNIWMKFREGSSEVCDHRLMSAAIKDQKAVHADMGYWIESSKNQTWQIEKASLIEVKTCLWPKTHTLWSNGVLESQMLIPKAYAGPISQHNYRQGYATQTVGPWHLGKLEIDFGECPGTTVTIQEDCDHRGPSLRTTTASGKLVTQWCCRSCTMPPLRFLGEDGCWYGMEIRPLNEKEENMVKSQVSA

[2] = target: T2, DENV2 NS1 (Dengue virus serotype 2) (UniProt Q9WDA6); assay: filter binding with qPCR
T2 sequence: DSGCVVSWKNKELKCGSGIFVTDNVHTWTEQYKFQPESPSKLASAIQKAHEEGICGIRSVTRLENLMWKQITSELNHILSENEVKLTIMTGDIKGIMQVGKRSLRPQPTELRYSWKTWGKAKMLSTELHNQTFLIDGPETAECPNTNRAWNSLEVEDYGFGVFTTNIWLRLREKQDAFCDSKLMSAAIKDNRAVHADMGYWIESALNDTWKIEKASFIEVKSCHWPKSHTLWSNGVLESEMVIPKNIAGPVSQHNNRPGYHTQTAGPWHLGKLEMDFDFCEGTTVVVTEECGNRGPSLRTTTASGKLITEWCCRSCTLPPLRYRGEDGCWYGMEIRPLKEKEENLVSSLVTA

## CTTCTGCCCGCCTCCTTCCGGGCCCCGGGGGGTGTCCAGGCCCATGCGTCGTCCGCGGGGAGACGAGATAGGCGGACACT [ZIKV60]
[1]
  binding signal (ratio ZIKV NS1/DENV4 NS1 bound): 14.8
[2]
  binding signal (ratio ZIKV NS1/DENV2 NS1 bound): 14.8
